In ChEMBL document CHEMBL3526061, “Glucuronidation of edaravone by human liver and kidney microsomes: biphasic kinetics and identification of UGT1A9 as the major UDP-glucuronosyltransferase isoform” (Drug Metab Dispos, 2012) one finds Km and Vmax data, which are given here for six proteins.

Substrate in the data set “not read”: CC(C)c1cccc(C(C)C)c1O
Kind of data set: not read.

Substrate in data set [1]: COc1c(C)c2c(c(O)c1C/C=C(\C)CCC(=O)O)C(=O)OC2
Kind of data set: Activity of human recombinant UGT1A9 expressed in insect cells assessed as enzyme mediated glucuronidation by LC-MS/MS method. The format is ADME.

Substrate in data set [2]: CC1=NN(c2ccccc2)C(=O)C1
Briefly: Activity of human recombinant UGT2B17 expressed in insect cells assessed as enzyme mediated glucuronidation by LC-MS/MS method. The format is ADME.

Substrate in data set [3]: CC1=NN(c2ccccc2)C(=O)C1
Briefly: Activity of human recombinant UGT2B7 expressed in insect cells assessed as enzyme mediated glucuronidation by LC-MS/MS method. The format is ADME.

Substrate in data set [4]: CC1=NN(c2ccccc2)C(=O)C1
Kind of data set: Activity of human recombinant UGT1A6 expressed in insect cells assessed as enzyme mediated glucuronidation by LC-MS/MS method. The format is ADME.

Substrate in data set [5]: CC1=NN(c2ccccc2)C(=O)C1
Briefly: Activity of human recombinant UGT1A7 expressed in insect cells assessed as enzyme mediated glucuronidation by LC-MS/MS method. The format is ADME.

Substrate in data set [6]: CC1=NN(c2ccccc2)C(=O)C1
Briefly: Activity of human recombinant UGT1A1 expressed in insect cells assessed as enzyme mediated glucuronidation by LC-MS/MS method. The format is ADME.

A word on the Km: it is the substrate concentration at which the rate is half of its maximum. As usually defined, the Vmax is the rate approached at saturating substrate.

B1: UDP-glucuronosyltransferase 1A9 (Homo sapiens) (protein)
chain: MACTGWTSPLPLCVCLLLTCGFAEAGKLLVVPMDGSHWFTMRSVVEKLILRGHEVVVVMPEVSWQLGRSLNCTVKTYSTSYTLEDLDREFKAFAHAQWKAQVRSIYSLLMGSYNDIFDLFFSNCRSLFKDKKLVEYLKESSFDAVFLDPFDNCGLIVAKYFSLPSVVFARGILCHYLEEGAQCPAPLSYVPRILLGFSDAMTFKERVRNHIMHLEEHLLCHRFFKNALEIASEILQTPVTEYDLYSHTSIWLLRTDFVLDYPKPVMPNMIFIGGINCHQGKPLPMEFEAYINASGEHGIVVFSLGSMVSEIPEKKAMAIADALGKIPQTVLWRYTGTRPSNLANNTILVKWLPQNDLLGHPMTRAFITHAGSHGVYESICNGVPMVMMPLFGDQMDNAKRMETKGAGVTLNVLEMTSEDLENALKAVINDKSYKENIMRLSSLHKDRPVEPLDLAVFWVEFVMRHKGAPHLRPAAHDLTWYQYHSLDVIGFLLAVVLTVAFITFKCCAYGYRKCLGKKGRVKKAHKSKTH
As for B1, the results for the Km (in the data set “not read”; in data set [1]) were 41 µM and 160 µM, respectively.

B2: UDP-glucuronosyltransferase 2B17 (Homo sapiens) (protein)
chain: MSLKWMSVFLLMQLSCYFSSGSCGKVLVWPTEYSHWINMKTILEELVQRGHEVIVLTSSASILVNASKSSAIKLEVYPTSLTKNDLEDFFMKMFDRWTYSISKNTFWSYFSQLQELCWEYSDYNIKLCEDAVLNKKLMRKLQESKFDVLLADAVNPCGELLAELLNIPFLYSLRFSVGYTVEKNGGGFLFPPSYVPVVMSELSDQMIFMERIKNMIYMLYFDFWFQAYDLKKWDQFYSEVLGRPTTLFETMGKAEMWLIRTYWDFEFPRPFLPNVDFVGGLHCKPAKPLPKEMEEFVQSSGENGIVVFSLGSMISNMSEESANMIASALAQIPQKVLWRFDGKKPNTLGSNTRLYKWLPQNDLLGHPKTKAFITHGGTNGIYEAIYHGIPMVGIPLFADQHDNIAHMKAKGAALSVDIRTMSSRDLLNALKSVINDPIYKENIMKLSRIHHDQPVKPLDRAVFWIEFVMRHKGAKHLRVAAHNLTWIQYHSLDVIAFLLACVATMIFMITKCCLFCFRKLAKTGKKKKRD
For the protein B2, in data set [2], the Km is 129 µM and the Vmax came to 4.29e-07 µmol/min/mg.

B3: UDP-glucuronosyltransferase 2B7 (Homo sapiens) (protein)
chain: MSVKWTSVILLIQLSFCFSSGNCGKVLVWAAEYSHWMNIKTILDELIQRGHEVTVLASSASILFDPNNSSALKIEIYPTSLTKTELENFIMQQIKRWSDLPKDTFWLYFSQVQEIMSIFGDITRKFCKDVVSNKKFMKKVQESRFDVIFADAIFPCSELLAELFNIPFVYSLSFSPGYTFEKHSGGFIFPPSYVPVVMSELTDQMTFMERVKNMIYVLYFDFWFEIFDMKKWDQFYSEVLGRPTTLSETMGKADVWLIRNSWNFQFPYPLLPNVDFVGGLHCKPAKPLPKEMEDFVQSSGENGVVVFSLGSMVSNMTEERANVIASALAQIPQKVLWRFDGNKPDTLGLNTRLYKWIPQNDLLGHPKTRAFITHGGANGIYEAIYHGIPMVGIPLFADQPDNIAHMKARGAAVRVDFNTMSSTDLLNALKRVINDPSYKENVMKLSRIQHDQPVKPLDRAVFWIEFVMRHKGAKHLRVAAHDLTWFQYHSLDVIGFLLVCVATVIFIVTKCCLFCFWKFARKAKKGKND
Take B3: in data set [3], the Km stood at 2380 µM and the Vmax came to 1.77e-06 µmol/min/mg.

B4: UDP-glucuronosyltransferase 1A6 (Homo sapiens) (protein)
chain: MACLLRSFQRISAGVFFLALWGMVVGDKLLVVPQDGSHWLSMKDIVEVLSDRGHEIVVVVPEVNLLLKESKYYTRKIYPVPYDQEELKNRYQSFGNNHFAERSFLTAPQTEYRNNMIVIGLYFINCQSLLQDRDTLNFFKESKFDALFTDPALPCGVILAEYLGLPSVYLFRGFPCSLEHTFSRSPDPVSYIPRCYTKFSDHMTFSQRVANFLVNLLEPYLFYCLFSKYEELASAVLKRDVDIITLYQKVSVWLLRYDFVLEYPRPVMPNMVFIGGINCKKRKDLSQEFEAYINASGEHGIVVFSLGSMVSEIPEKKAMAIADALGKIPQTVLWRYTGTRPSNLANNTILVKWLPQNDLLGHPMTRAFITHAGSHGVYESICNGVPMVMMPLFGDQMDNAKRMETKGAGVTLNVLEMTSEDLENALKAVINDKSYKENIMRLSSLHKDRPVEPLDLAVFWVEFVMRHKGAPHLRPAAHDLTWYQYHSLDVIGFLLAVVLTVAFITFKCCAYGYRKCLGKKGRVKKAHKSKTH
B4: in data set [4], the Km is 778 µM and the Vmax amounted to 1.24e-06 µmol/min/mg.

B5: UDP-glucuronosyltransferase 1A7 (Homo sapiens) (protein)
chain: MARAGWTGLLPLYVCLLLTCGFAKAGKLLVVPMDGSHWFTMQSVVEKLILRGHEVVVVMPEVSWQLGRSLNCTVKTYSTSYTLEDQDREFMVFADARWTAPLRSAFSLLTSSSNGIFDLFFSNCRSLFNDRKLVEYLKESCFDAVFLDPFDACGLIVAKYFSLPSVVFARGIFCHYLEEGAQCPAPLSYVPRLLLGFSDAMTFKERVWNHIMHLEEHLFCPYFFKNVLEIASEILQTPVTAYDLYSHTSIWLLRTDFVLEYPKPVMPNMIFIGGINCHQGKPVPMEFEAYINASGEHGIVVFSLGSMVSEIPEKKAMAIADALGKIPQTVLWRYTGTRPSNLANNTILVKWLPQNDLLGHPMTRAFITHAGSHGVYESICNGVPMVMMPLFGDQMDNAKRMETKGAGVTLNVLEMTSEDLENALKAVINDKSYKENIMRLSSLHKDRPVEPLDLAVFWVEFVMRHKGAPHLRPAAHDLTWYQYHSLDVIGFLLAVVLTVAFITFKCCAYGYRKCLGKKGRVKKAHKSKTH
Turning to B5, in data set [5], the Km was 432 µM and the Vmax was 7.4e-07 µmol/min/mg.

B6: UDP-glucuronosyltransferase 1A1 (Homo sapiens) (protein)
chain: MAVESQGGRPLVLGLLLCVLGPVVSHAGKILLIPVDGSHWLSMLGAIQQLQQRGHEIVVLAPDASLYIRDGAFYTLKTYPVPFQREDVKESFVSLGHNVFENDSFLQRVIKTYKKIKKDSAMLLSGCSHLLHNKELMASLAESSFDVMLTDPFLPCSPIVAQYLSLPTVFFLHALPCSLEFEATQCPNPFSYVPRPLSSHSDHMTFLQRVKNMLIAFSQNFLCDVVYSPYATLASEFLQREVTVQDLLSSASVWLFRSDFVKDYPRPIMPNMVFVGGINCLHQNPLSQEFEAYINASGEHGIVVFSLGSMVSEIPEKKAMAIADALGKIPQTVLWRYTGTRPSNLANNTILVKWLPQNDLLGHPMTRAFITHAGSHGVYESICNGVPMVMMPLFGDQMDNAKRMETKGAGVTLNVLEMTSEDLENALKAVINDKSYKENIMRLSSLHKDRPVEPLDLAVFWVEFVMRHKGAPHLRPAAHDLTWYQYHSLDVIGFLLAVVLTVAFITFKCCAYGYRKCLGKKGRVKKAHKSKTH
As to B6, in data set [6], the Km stood at 285 µM and the Vmax turned out to be 4.52e-08 µmol/min/mg.
